This is an account of results in patent publication US20250145711A1 (Janssen / Centocor, published 2025).

For experiment [1], the target named is T1, TRCW5 antigen (CD3δε-Fc-Avi) (biotinylated (site not stated)).
T1 construct: also called recombinant CD3
Nature of the experiment: ELISA.

In experiment [2] the target is T2, CD3 on primary human pan T cells (human, UniProt P07766 23-207).
T2 construct: on cells it stands in the TCR/CD3 complex; also called Pan T-cells (CD3-positive); endogenous CD3
T2 sequence (P07766 23-207 limits assumed): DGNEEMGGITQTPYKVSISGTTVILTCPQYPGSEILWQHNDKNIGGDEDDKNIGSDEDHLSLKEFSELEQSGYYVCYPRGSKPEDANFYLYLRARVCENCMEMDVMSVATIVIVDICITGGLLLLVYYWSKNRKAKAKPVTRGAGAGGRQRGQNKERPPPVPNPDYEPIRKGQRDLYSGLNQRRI
Description: flow cytometry, pan T-cells.

Experiment [3] addresses T1, TRCW5 antigen (CD3δε-Fc-Avi). Nature of the experiment: ELISA after heat. (In general: An ELISA detects its analyte on a solid surface through an enzyme-linked reagent.)

For orientation: EC50 means the concentration giving half of the maximal effect. Low readings indicate a more potent agent, high ones a less potent agent.

T1 sequence (chain, as listed by the source mutant limits assumed): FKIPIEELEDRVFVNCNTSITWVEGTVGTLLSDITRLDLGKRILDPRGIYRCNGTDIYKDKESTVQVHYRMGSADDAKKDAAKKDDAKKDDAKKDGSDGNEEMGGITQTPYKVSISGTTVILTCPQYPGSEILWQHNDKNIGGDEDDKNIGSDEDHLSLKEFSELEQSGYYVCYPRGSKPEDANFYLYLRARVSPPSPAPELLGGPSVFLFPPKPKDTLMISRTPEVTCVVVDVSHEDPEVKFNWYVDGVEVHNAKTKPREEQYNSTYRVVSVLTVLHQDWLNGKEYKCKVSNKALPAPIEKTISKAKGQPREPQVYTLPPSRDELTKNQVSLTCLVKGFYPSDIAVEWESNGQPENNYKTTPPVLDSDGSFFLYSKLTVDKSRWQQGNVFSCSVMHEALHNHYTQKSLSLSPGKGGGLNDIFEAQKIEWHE

B1: CD3B2030 N106I (scFv)
scFv: QVQLVQSGAEVKKPGSSVKVSCKASGYTFTRSTMHWVKQAPGQGLEWIGYINPSSAYTNYNQKFQGRVTLTADKSTSTAYMELSSLRSEDTAVYYCASPQVHYDYIGFPYWGQGTLVTVSSGGSEGKSSGSGSESKSTGGSEIVLTQSPATLSASPGERVTLSCSASSSVSYMNWYQQKPGQAPRRWIYDSSKLASGVPARFSGSGSGRDYTLTISSLEPEDFAVYYCQQWSRNPPTFGGGTKVEIK
The molecule B1 returned an EC50 in experiment [1] of roughly 13.3 nM.

B2: CD3B2085 (scFv)
scFv: QVQLVQSGAEVKKPGSSVKVSCKASGYTFTRSTMHWVRQAPGQGLEWMGYINPSSAYTNYAQKFQGRVTLTADKSTSTAYMELSSLRSEDTAVYYCASPQVHYDYNGFPYWGQGTLVTVSSGGSEGKSSGSGSESKSTGGSEIVLTQSPATLSASPGERVTLSCSASSSVSYMNWYQQKPGTAPRRWIYDSSKLASGVPARFSGSGSGRDYTLTISSLEPEDFAVYYCQQWSRNPPTFGGGTKVEIK
Turning to B2, in experiment [2], the “% Binding retained on T-cells, 55° C.” value was 1.01 fraction; the “% Binding retained on T-cells, 60° C.” value came to 0.411 fraction; the “% Binding retained on T-cells, 65° C.” value came out at 0.385 fraction; the “% Binding retained on T-cells, RT” value is 1 fraction. Further, in experiment [3], the “% Retained 55° C.” value was determined as 112%, the “% Retained 60° C.” value was 117% and the “% Retained 65° C.” value worked out at 18%.

B3: CD3B2088 (scFv)
scFv: QVQLVQSGAEVKKPGSSVKVSCKASGYTFTRSTMHWVRQAPGQGLEWMGYINPSSAYTNYAQKFQGRVTLTADKSTSTAYMELSSLRSEDTAVYYCASPQVHYDYNGFPYWGQGTLVTVSSGGSEGKSSGSGSESKSTGGSEIVLTQSPATLSASPGERVTLSCSASSSVSYMNWYQQKPGQSPRRWIYDSSKLASGVPARFSGSGSGRDYTLTISSLEPEDFAVYYCQQWSRNPPTFGGGTKVEIK
Take B3: in experiment [2], the “% Binding retained on T-cells, 55° C.” value came out at 1.01 fraction; the “% Binding retained on T-cells, 60° C.” value was found to be 0.461 fraction; the “% Binding retained on T-cells, 65° C.” value was 0.258 fraction; the “% Binding retained on T-cells, RT” value amounted to 1 fraction. In experiment [3], the “% Retained 55° C.” value was 116%, the “% Retained 60° C.” value is 114% and the “% Retained 65° C.” value is 26%.

B4: CD3B2089 G107F (scFv)
scFv: QVQLVQSGAEVKKPGSSVKVSCKASGYTFTRSTMHWVRQAPGQGLEWMGYINPSSAYTNYAQKFQGRVTLTADKSTSTAYMELSSLRSEDTAVYYCASPQVHYDYNFFPYWGQGTLVTVSSGGSEGKSSGSGSESKSTGGSEIVLTQSPATLSASPGERVTLSCSASSSVSYMNWYQQKPGQAPRRWIYDSSKLASGVPARFSGSGSGRDYTLTISSLEPEDFAVYYCQQWSRNPPTFGGGTKVEIK
Molecule B4 showed a 50% effective concentration (EC50) in experiment [1] of 14.4 nM.

B5: CD3B2087 (scFv)
scFv: QVQLVQSGAEVKKPGSSVKVSCKASGYTFTRSTMHWVRQAPGQGLEWMGYINPSSAYTNYAQKFQGRVTLTADKSTSTAYMELSSLRSEDTAVYYCASPQVHYDYNGFPYWGQGTLVTVSSGGSEGKSSGSGSESKSTGGSEIVLTQSPATLSASPGERVTLSCSASSSVSYMNWYQQKPGTAPRRLIYDSSKLASGVPARFSGSGSGRDYTLTISSLEPEDFAVYYCQQWSRNPPTFGGGTKVEIK
In the case of B5, in experiment [2], the “% Binding retained on T-cells, 55° C.” value came to 1.02 fraction; the “% Binding retained on T-cells, 60° C.” value turned out to be 0.964 fraction; the “% Binding retained on T-cells, 65° C.” value is 0.105 fraction; the “% Binding retained on T-cells, RT” value amounted to 1 fraction. In addition, in experiment [3], the “% Retained 55° C.” value was 104%, the “% Retained 60° C.” value stood at 94% and the “% Retained 65° C.” value was 5%.

B6: CD3B2030 N106P (scFv)
scFv: QVQLVQSGAEVKKPGSSVKVSCKASGYTFTRSTMHWVKQAPGQGLEWIGYINPSSAYTNYNQKFQGRVTLTADKSTSTAYMELSSLRSEDTAVYYCASPQVHYDYPGFPYWGQGTLVTVSSGGSEGKSSGSGSESKSTGGSEIVLTQSPATLSASPGERVTLSCSASSSVSYMNWYQQKPGQAPRRWIYDSSKLASGVPARFSGSGSGRDYTLTISSLEPEDFAVYYCQQWSRNPPTFGGGTKVEIK
For B6, the half-maximal effective concentration (EC50) in experiment [1] was roughly 24 nM.
